Target: T1, GST-EC2 (GST fusion of extracellular loop 2 of human CD63, amino acids 108-202) (human, UniProt P08962 108-202)
T1 construct: range 108-202; Expressed in E. coli BL-21; on blots as total bacterial lysate, in BIAcore captured by immobilised anti-GST antibody; Vector-encoded residues between GST and the loop are not described; also called EC2 fusion polypeptide; not shown: glutathione S-transferase as encoded by the bacterial expression vector PGEX-4T-2 (Amersham Biosciences)
T1 sequence (looked up): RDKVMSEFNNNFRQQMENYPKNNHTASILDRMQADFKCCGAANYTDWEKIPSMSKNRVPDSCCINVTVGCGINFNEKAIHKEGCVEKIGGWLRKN
Assay: BIAcore, steady state; GST-EC2 captured on immobilised anti-GST antibody, antibody injected at 12.5 to 200 nM; KD as reciprocal of KA

B1: 7BD-33-11A monoclonal antibody (hybridoma ATCC PTA-4890) (antibody, V domains shown)
VH: EVQLQQSGPGLVKPGASVKMSCKASGYTFTSYVMHWVKQMPGQGLEWIGYITPYNDGTKYNEKFKGKATLTSDKSSSTAYMDLSSLTSEDSAVYYCVYGSRYDWYFDVWGAGTTVTVSS
VL: NIMMTQSPSSLAVSAGEKVTMSCKSSQSVLYSSNQKNYLAWYQQKPGQSPKLLIYWASTRESGVPDRFTGSGSGTDFTLTISSVQAEDLAVYYCHQYFSSYTFGGGTKLEIK
Kd: 135 nM

From patent US7431923
